Assay results: patent publication US20230355813A1, “Theranostic Silicon-Fluoride Heteroaromatic Systems and Methods Thereof” (Fuzionaire Diagnostics, Inc., priority 2022, published 2023)

What was measured:
[1] = pH 10
From the text: Brief descriptions of each property and the characterization of each property are stated below. • a) Hydrophilicity. Hydrophilicity relates to the strength of being dissolved in or absorbed in aqueous solutions. It denotes a preference for liquids, solutions, or surfaces with a high dipole moment, like water. Lipophilicity denotes a preference for liquids, solutions, or surfaces with a low dipole moment, such as lipid solutions. The more polar the HetSiFA, the less masking of the lipophilicity may be needed in the radiopharmaceutical via introducing cumbersome and lengthy linkers. The hydrophilicity of HetSiFAs is assessed by calculating and/or measuring the octanol/water partition coefficient log P. Log D measures the lipophilicity of ionizable compounds, where the partition is a function of the pH. The reversed-phase HPLC retention times tR can be used to qualitatively compare the polarity of HetSiFAs. • b) Hydrolytic stability. […] At different time points, the substrate is quantified by HPLC UV monitoring. […] The hydrolysis is monitored by HPLC (˜7 timepoints). […] In addition, the stability of compounds can be assessed in rat and human plasma and in microsomes. • c) Radiolabeling. […] The radiolabeling properties of synthesized HetSiFAs can be assessed using low amounts of radioactivity. […]

[2] = stability in solution / on storage (observations); assay type: physicochemical; settings: prolonged storage
[3] = ex vivo biodistribution in healthy mice; settings: for bone uptake: ex vivo biodistribution, 3 healthy Balb/c female mice, indicates Si-18F bond stability in vivo
FIG. 26 = test: FIG. 26
From the text: Table printed on a drawing sheet, FIG. 26
The patent's description of the figure: FIG. 26 illustrates HSA binding assay results of HetSiFA compounds in accordance with an embodiment of the invention.
FIG. 26 illustrates human serum albumin (HSA) binding assay results of HetSiFA compounds in accordance with an embodiment. A standard curve can be first established using reference compounds (See, e.g., Valko, K. et al., J. Pharm. Sci. 2003, 92 (11), 2236-2248; Wurzer, A. J. et al., PSMA binding dual mode radiotracer and therapeutic. 2020, WO2020157177A1; the disclosures of which are herein incorporated by reference.) The HSA binding assay results include four HetSiFA theranostic compounds, FTX-164, FTX-165, FTX-168, and FTX-181 (structures shown in FIG. 26), and two therapeutics Lutathera and Lu-NeoB. […] Test condition of the HSA binding assay includes: Column: Chiralpak HSA (100×2.1 mm, 5 μm, Cat. No. HSA5LM-C0004), flow rate: 0.3 mL/min. Mobile phase: A—NH40Ac buffer (50 mM, pH=7), freshly prepared each day; B—isopropanol (HPLC grade); 0-3 min: isocratic 100% A, 0% B; 3-40 min: gradient to 80% A, 20% B; 40-60 min: isocratic 80% A, 20% B. Samples: 9 reference compounds, concentration 0.5 mg/mL in i-PrOH/NH4OAc (50 mM) pH=7, 50:50. […]
First reader's note: HSA % is human serum albumin binding; the structures of the compounds are drawn beside the table on the same sheet.

Row | Compound | hydrolytic stability compared to phenyl-SiFA [1] | bone uptake [3] | other results
1 | COc1ccncc1[Si](F)(C(C)(C)C)C(C)(C)C [3-(Di-tert-butylfluorosilyl)-4-methoxypyridine] | slightly lower hydrolytic stability than phenyl-SiFA | – | –
2 | COc1ncccc1[Si](F)(C(C)(C)C)C(C)(C)C [5-(Di-tert-butylfluorosilyl)-6-methoxypyridine] | higher hydrolytic stability than phenyl-SiFA | – | –
3 | CC(C)(C)OC(=O)NCCOCCn1nc(NCC(=O)O)cc1[Si](F)(C(C)(C)C)C(C)(C)C [PPI-24068, (1-(2-(2-((tert-butoxycarbonyl)amino)ethoxy)ethyl)-5-(di-tert-butylfluorosilyl)-1H-pyrazol-3-yl)glycine] | – | – | stability on storage and in basic medium [2]: some instability
4 | Lu-DOTAGA-^18F-Pyrazole-HetSiFA-PEG12-TATE [^18F-FTX-181] | – | less bone uptake | accumulation in the liver ([3]; healthy Balb/c female mice): low; washout from non-targeted organs ([3]; healthy Balb/c female mice): washes out from non-targeted organs except for the gallbladder
5 | ^18F-Pyrazole-HetSiFA-Lu-DOTAGA-TATE [^18F-FTX-165] | – | Little bone uptake | –
6 | ^18F-Pyridine-HetSiFA-Lu-DOTAGA-TATE [FTX-164] | – | – | HSA % (FIG. 26): 97.78%
